{"source": "patent US20060188874A1", "about": "“Methods and compositions for colorimetrically assessing peptide characteristics” (priority 2004, published 2006)", "assay_type_in_all_cases": "physicochemical", "key": {"[1]": {"test": "Dissolution test of peptide sample (pH raised stepwise until dissolved)", "method": "For example, a simple dissolution test can be used to evaluate the solubility characteristics of a peptide sample. The test is conveniently carried out at a temperature in the range of from about 20° C. to about 27° C., preferably about 25° C. From about 0.1 to about 0.3 grams of peptide is combined with about 1 to about 3 ml of an aqueous medium. The medium may be deionized water. In the case of T-20 or T-1249, these peptides are mildly acetic. Consequently, the medium optionally may include some initial amount base, e.g., about 17 mM Na2CO3 or the like, to provide a suitable initial pH. […] The mixture is rapidly stirred for 5 to 10 minutes between additional increments. Solids adhering to the sides of the testing vessel should be re-suspended. Rapid mixing should be maintained throughout. Results include observations regarding the clarity of the mixture, time required for dissolution, concentration and amount of caustic used, final pH upon dissolution (if this occurs below pH 9), and the like.\nFor purposes of the invention, peptides such as T-20, T-1249, and GLP-1, as well as counterparts of these, may be deemed to be in a more desired, deaggregated form if dissolution in accordance with this test occurs at a pH of less than about 8, preferably less than about 7.5. If dissolution occurs at a pH of greater than about 7.5, more preferably greater than about 8, the peptide is deemed to be in a less desired aggregated form. This helps to ensure the practicality of handling the peptide during subsequent processing and handling."}, "[2]": {"test": "Molar mass by MALS light scattering (apparent MW as measure of aggregation)", "conditions": "solution sample taken during acid addition at pH 9.3, re-work of Sample A", "text": "Molecular weight analysis is also a useful technique to assess beta sheet structure in a peptide. Depending upon the technique and equipment used, the molecular weight may be the weight average molecular weight, number average molecular weight, actual molecular weight, or average molecular weight. Assessment of average molecular weight or weight average molecular weight are preferred. A peptide formed from a known sequence and number of amino acids generally has a theoretical molecular weight that is known with a fair degree of certainty. The theoretical molecular weight can be calculated from the theoretical peptide structure. The molecular weight of a peptide sample can be determined through any suitable technique such as light scattering analysis. However, the amount of beta sheet structure of a sample impacts its measured molecular weight. Generally, the measured molecular weight tends to be higher with increasing amounts of beta sheet structure being present.\nAs an example, the T-1249 peptide has a theoretical molecular weight of about 5000. The measured, apparent molecular weight of actual samples of the peptide may range from 6000 to 100,000 or even more. […]\nSample A was a portion of a highly aggregated batch of T-1249 peptide having an average molecular weight of 98,890±6660. The molar mass was determined using MALS light scattering. […]"}, "[3]": {"test": "Congo Red colorimetric analysis of beta sheet aggregation", "conditions": "aggregated T-1249 peptide added to initially orange red solution", "method": "The following procedure is used to prepare a Congo Red solution suitable for assessing, qualitatively and/or quantitatively, via colorimetric analysis the solubility and formulating characteristics of a peptide sample. A 50 mM solution of sodium phosphate buffer, pH 7.2 is prepared and filtered through a 0.22 μm Polyethersulfone membrane. 25 μM of Congo Red is dissolved in the sodium phosphate buffer with sonication. The mixture also included about 1% by volume ethanol (This can be 95% ethanol or absolute ethanol.) The solution is orange-colored.\nSonication is used until the peptide is dissolved\nThe peptide/Congo Red solution is incubated at ambient temperature for 3-4 hours.\nAccording to a preferred procedure, a Hewlett Packard 8453 spectrophotometer is used to obtain a blank, reference spectrum of the 50 mM solution of sodium phosphate buffer prepared in Example 6. Using the same instrument, a spectrum for the 25 μM Congo Red solution is measured over a suitable range, e.g., from about 300 nm to about 650 nm. […] If this difference is greater than an empirically determined quality control specification, the sample can be deemed to fail. […]"}, "[4]": {"conditions": "precipitated with 18% by volume acetonitrile"}}, "data": [{"substance": "Acetyl-WQEWEQKITALLEQAQIQQE KNEYELQKLDKWASLWEWF-NH2 (Ac-WQEWEQKITALLEQAQIQQEKNEYELQKLDKWASLWEWF-NH2) [Sample T-1249, ID NO; 20]", "values": [{"measurement": "dissolution behaviour", "setting": "[1]; precipitated with 14% by volume acetonitrile", "value": "dissolved to some degree at a pH of 6.95 but not completely"}, {"measurement": "dissolution time", "setting": "[1]; [4]", "value": 1, "unit": "h"}, {"measurement": "final pH at dissolution", "setting": "[1]; [4]", "value": 6.69}, {"measurement": "turbidity appearance at dissolution", "setting": "[1]; [4]", "value": "very faint turbidity"}, {"measurement": "dissolution pH", "setting": "[1]; precipitated with 20 to 22 volume percent acetonitrile", "value": "around 9"}, {"measurement": "dissolution behaviour", "setting": "[1]; precipitated with no co-solvent, after 14 to 18 hours, pH of 8", "value": "dissolved very slowly with high turbidity"}, {"measurement": "molar mass by the MALS method", "setting": "[2]", "value": 6500}, {"measurement": "colour change of Congo Red solution", "setting": "[3]", "value": "deep salmon-pink color"}]}]}
